Laboratory results: patent US9551711B2, “Compositions and methods for detecting nitration of PKG-1α and methods of use thereof” (Augusta University Research Institute, Inc., priority 2013, dated 2017)
Non-standard residues stand in square brackets, D forms with d. Tyr(3-NO2) = N[C@@H](Cc1ccc(O)c([N+](=O)[O-])c1)C(=O)O

Columns and labels:
PKG-1α [1] = test: [3H]cGMP binding assay on immunopurified PKG-1α; parameters: species or system human; conditions: [3H]cGMP 0-200 nM, 100 ng immunopurified enzyme; average affinity of the two cGMP-binding sites; + SIN1 = cells exposed to SIN-1 500 μM, 30 min
Experimental: HEK-293T cells were transiently transfected with either the WT-PKG-1α or the Y247FPKG-1α cDNA using Effectene transfection reagent (Qiagen), according to the manufacturer's instructions. Briefly, the cells were split the day before the transfection to low cell densities (25%) and were transfected 24 h later. After 48 h of transfection, the cells were incubated in DMEM serum free media containing 1% FBS and antibiotics for 4 h and then treated with or without SIN-1 (500 μM), for 30 min. This method produced an approximate 70% transfection efficiency of HEK-293T cells, as measured using green fluorescent protein vectors. […]
The batches of supernatant were pooled, and 2 μg of anti-PKG-1α antibody per mg of protein were added to the extract and rocked at 4° C. […] After 15 min of agitation at 4° C., the beads were pelleted by centrifugation, and the supernatant containing the PKG-1α protein was collected, quantified using Bradford reagent, and stored at −80° C.
To assay the binding of cGMP to WT- and Y247F-PKG-1α the enzymes were saturated with cGMP by incubating 50 μl aliquots of the diluted PKG constructs for 60 min at room temperature with 50 μl of [^3H]cGMP and 150 μl of cGMP-binding assay mixture (25 mM K2HPO4, 25 mM KH2PO4, 1 mM EDTA, pH 6.8, 2M NaCl, 200 μM 3-isobutyl-1-methylxanthine). […] The dissociation constant (Kd) values were determined using GraphPad Prism graphics. […]

PKG-1α [2] = test: PKG catalytic activity, Michaelis-Menten kinetics for cGMP; type: biochemical, human; conditions: ATP 125 μM, cGMP 0-10 μM; + SIN1 = SIN-1 500 μM, 30 min
Experimental: Total PKG activity was determined using a non-radioactive immunoassay in cell lysates, according to the manufacturer's directions. Briefly, protein samples were diluted in kinase reaction buffer containing Mg^2+ and ATP (125 μM) in the presence or absence of 8-Br cGMP (10 μM) and incubated in a 96 well plate pre-coated with a PKG substrate containing threonine residues phosphorylated by PKG.
After incubation for 30 min at 30° C. to allow the phosphorylation of the bound substrate, an HRP conjugated anti-phosphothreonine specific antibody was added to convert a chromogenic substrate to a colorimetric substrate that was subsequently read spectrophotometrically at 450 nm. The change in absorbance reflected the relative activity of PKG in the sample. The results were reported as pmols of phosphate incorporated into the GST-G substrate fusion protein by active PKG in the sample in the presence or absence of cGMP (10 μM) per minute at 30° C. per μg of protein (pmol/min/μg). […] The kinetic constants were determined using nonlinear regression (curve fit) analysis (GraphPad Prism Software Inc.).
To determine the Michaelis-Menten constant (Km) for cGMP, the kinase assay was performed, as mentioned above; however, the cGMP concentration was titrated from 0-10 μM, while the ATP concentration remained constant at 125 μM.

Kd (PKG-1α [1]): 0.0321 ± 0.0055 µM
B1: WT-PKG-1α + SIN1: WT-PKG-1α immunopurified from cells exposed to SIN-1 (500 μM, 30 min) (protein)
chain: SELEEDFAKILMLKEERIKELEKRLSEKEEEIQELKRKLHKCQSVLPVPSTHIGPRTTRAQGISAEPQTYRSFHDLRQAFRKFTKSERSKDLIKEAILDNDFMKNLELSQIQEIVDCMYPVEYGKDSCIIKEGDVGSLVYVMEDGKVEVTKEGVKLCTMGPGKVFGELAILYNCTRTATVKTLVNVKLWAIDRQCFQTIMMRTGLIKHTEYMEFLKSVPTFQSLPEEILSKLADVLEETHYENGE[Tyr(3-NO2)]IIRQGARGDTFFIISKGTVNVTREDSPSEDPVFLRTLGKGDWFGEKALQGEDVRTANVIAAEAVTCLVIDRDSFKHLIGGLDDVSNKAYEDAEAKAKYEAEAAFFANLKLSDFNIIDTLGVGGFGRVELVQLKSEESKTFAMKILKKRHIVDTRQQEHIRSEKQIMQGAHSDFIVRLYRTFKDSKYLYMLMEACLGGELWTILRDRGSFEDSTTRFYTACVVEAFAYLHSKGIIYRDLKPENLILDHRGYAKLVDFGFAKKIGFGKKTWTFCGTPEYVAPEIILNKGHDISADYWSLGILMYELLTGSPPFSGPDPMKTYNIILRGIDMIEFPKKIAKNAANLIKKLCRDNPSERLGNLKNGVKDIQKHKWFEGFNWEGLRKGTLTPPIIPSVASPTDTSNFDSFPEDNDEPPPDDNSGWDIDF
Vmax (PKG-1α [2]): 0.28 ± 0.01 pmol/min/µg
